Patent US20080021198

Molecular target: methylated PP2A A-C hetero-dimer (bovine brain, methylated in vitro with PMT and H^3-SAM), Q32PI5
Sequence (Q32PI5 2-589, chain 1 of 2): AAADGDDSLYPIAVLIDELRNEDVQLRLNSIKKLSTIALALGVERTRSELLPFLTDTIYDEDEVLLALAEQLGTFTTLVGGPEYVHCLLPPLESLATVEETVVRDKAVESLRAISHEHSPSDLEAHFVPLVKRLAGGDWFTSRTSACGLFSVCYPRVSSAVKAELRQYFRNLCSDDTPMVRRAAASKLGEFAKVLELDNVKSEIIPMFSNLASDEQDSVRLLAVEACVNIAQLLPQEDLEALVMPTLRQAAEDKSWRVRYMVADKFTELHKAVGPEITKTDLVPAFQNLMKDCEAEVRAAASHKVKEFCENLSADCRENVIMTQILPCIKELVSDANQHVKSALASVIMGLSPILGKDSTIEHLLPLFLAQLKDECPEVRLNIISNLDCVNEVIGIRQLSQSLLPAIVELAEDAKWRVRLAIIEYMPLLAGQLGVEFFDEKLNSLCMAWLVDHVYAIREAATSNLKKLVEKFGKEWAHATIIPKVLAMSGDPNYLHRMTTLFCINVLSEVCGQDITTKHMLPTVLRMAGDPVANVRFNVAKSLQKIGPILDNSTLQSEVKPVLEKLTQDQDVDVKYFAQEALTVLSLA
Sequence (chain, as listed by the source, chain 2 of 2): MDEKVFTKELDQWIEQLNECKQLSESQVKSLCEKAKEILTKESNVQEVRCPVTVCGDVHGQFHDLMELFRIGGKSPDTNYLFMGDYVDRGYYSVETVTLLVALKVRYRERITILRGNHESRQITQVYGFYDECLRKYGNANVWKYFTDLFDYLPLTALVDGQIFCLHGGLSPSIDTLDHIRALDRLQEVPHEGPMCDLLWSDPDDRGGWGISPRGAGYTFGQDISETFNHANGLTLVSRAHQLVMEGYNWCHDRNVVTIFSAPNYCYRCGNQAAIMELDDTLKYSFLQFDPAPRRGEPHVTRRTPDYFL

Protein	methyl esterase activity (release of H^3-methanol)	enzyme activity (methyl esterase, release of H^3-methanol)
trypsin-resistant structural core of PME (protein) chain 1: RDFSPVPWSQYFESMEDVEVENETGKDTFRVYKSGSEGPVLLLLHGGGHSALSWAVFTAAIISRVQCRIVALDLRSHGETKVKNPEDLSAETMAKDVGNVVEAMYGDLPPPIMLIGHSMGGAIAVHTASSNLVPSLLGLCMIDVVEGTAMDALNSMQNFLRGRPKTFKSLENAIEWSVKSGQIRNLESARVSMVGQVKQCEGITSPEGSK chain 2: KEDDMETKKDHPYTWRIELAKTEKYWDGWFRGLSNLFLSCPIPKLLLLAGVDRLDKDLTIGQMQGKFQMQVLPQCGHAVHEDAPDKVAEAVATFLIRHRFAEPIGGFQCVFPGC	the PME core exhibits a similar methyl esterase activity to that of the full-length PME	–
PME S156A mutant (protein) MSALEKSMHLGRLPSRPPLPGSGGSQSGAKMRMGPGRKRDFSPVPWSQYFESMEDVEVENETGKDTFRVYKSGSEGPVLLLLHGGGHSALSWAVFTAAIISRVQCRIVALDLRSHGETKVKNPEDLSAETMAKDVGNVVEAMYGDLPPPIMLIGHAMGGAIAVHTASSNLVPSLLGLCMIDVVEGTAMDALNSMQNFLRGRPKTFKSLENAIEWSVKSGQIRNLESARVSMVGQVKQCEGITSPEGSKSIVEGIIEEEEEDEEGSESISKRKKEDDMETKKDHPYTWRIELAKTEKYWDGWFRGLSNLFLSCPIPKLLLLAGVDRLDKDLTIGQMQGKFQMQVLPQCGHAVHEDAPDKVAEAVATFLIRHRFAEPIGGFQCVFPGC	–	mutation of Ser156 to alanine completely abolished the enzyme activity
PME S156T mutant (protein) MSALEKSMHLGRLPSRPPLPGSGGSQSGAKMRMGPGRKRDFSPVPWSQYFESMEDVEVENETGKDTFRVYKSGSEGPVLLLLHGGGHSALSWAVFTAAIISRVQCRIVALDLRSHGETKVKNPEDLSAETMAKDVGNVVEAMYGDLPPPIMLIGHTMGGAIAVHTASSNLVPSLLGLCMIDVVEGTAMDALNSMQNFLRGRPKTFKSLENAIEWSVKSGQIRNLESARVSMVGQVKQCEGITSPEGSKSIVEGIIEEEEEDEEGSESISKRKKEDDMETKKDHPYTWRIELAKTEKYWDGWFRGLSNLFLSCPIPKLLLLAGVDRLDKDLTIGQMQGKFQMQVLPQCGHAVHEDAPDKVAEAVATFLIRHRFAEPIGGFQCVFPGC	–	mutation to threonine and cysteine retained 10% and 40% of the enzyme activity, respectively
full-length PP2A methyl esterase (PME) (protein) MSALEKSMHLGRLPSRPPLPGSGGSQSGAKMRMGPGRKRDFSPVPWSQYFESMEDVEVENETGKDTFRVYKSGSEGPVLLLLHGGGHSALSWAVFTAAIISRVQCRIVALDLRSHGETKVKNPEDLSAETMAKDVGNVVEAMYGDLPPPIMLIGHSMGGAIAVHTASSNLVPSLLGLCMIDVVEGTAMDALNSMQNFLRGRPKTFKSLENAIEWSVKSGQIRNLESARVSMVGQVKQCEGITSPEGSKSIVEGIIEEEEEDEEGSESISKRKKEDDMETKKDHPYTWRIELAKTEKYWDGWFRGLSNLFLSCPIPKLLLLAGVDRLDKDLTIGQMQGKFQMQVLPQCGHAVHEDAPDKVAEAVATFLIRHRFAEPIGGFQCVFPGC	the PME core exhibits a similar methyl esterase activity to that of the full-length PME	–
PME S156C mutant (protein) MSALEKSMHLGRLPSRPPLPGSGGSQSGAKMRMGPGRKRDFSPVPWSQYFESMEDVEVENETGKDTFRVYKSGSEGPVLLLLHGGGHSALSWAVFTAAIISRVQCRIVALDLRSHGETKVKNPEDLSAETMAKDVGNVVEAMYGDLPPPIMLIGHCMGGAIAVHTASSNLVPSLLGLCMIDVVEGTAMDALNSMQNFLRGRPKTFKSLENAIEWSVKSGQIRNLESARVSMVGQVKQCEGITSPEGSKSIVEGIIEEEEEDEEGSESISKRKKEDDMETKKDHPYTWRIELAKTEKYWDGWFRGLSNLFLSCPIPKLLLLAGVDRLDKDLTIGQMQGKFQMQVLPQCGHAVHEDAPDKVAEAVATFLIRHRFAEPIGGFQCVFPGC	–	mutation to threonine and cysteine retained 10% and 40% of the enzyme activity, respectively
